This passage reports Kd results from publication PMC3753260, “High Yield Production of a Soluble Human Interleukin-3 Variant from E. coli with Wild-Type Bioactivity and Improved Radiolabeling Properties” (PLoS ONE, 2013).

Test [1] addresses T1, human IL-3Rα subunit (human, UniProt P26951 19-378).
T1 construct: human interleukin-3 receptor α subunit, transiently expressed on COS cells; also called hIL-3Rα; IL-3-specific α-subunit; source: COS cells, transfected by electroporation (pSG5: IL-3Rα), on cells
The experiment in a line: radioligand binding; ^125I-labelled hIL-3(13-125; W13Y) on COS cells transiently expressing IL-3 receptors; Scatchard analysis with EBDA-LIGAND software. To be noted: one partner purified.

Test [2] has as its target T2, hIL-3Rα and hβc subunits co-expressed (hIL-3 receptor) (human, UniProt P26951 19-378; P32927 17-897).
T2 construct: human interleukin-3 receptor α subunit, transiently co-expressed with βc on COS cells; human common β-subunit (βc) shared with the IL-5 and GM-CSF receptors, transiently co-expressed with IL-3Rα on COS cells; The two subunits were co-expressed on the same cells; also called IL-3Rα and βc; hIL-3 receptors; source: COS cells, transfected by electroporation (pSG5: IL-3Rα and pSG5: βc), on cells
Described as above. To be noted: one partner purified.

T2 sequence (P26951 19-378, chain 1 of 2): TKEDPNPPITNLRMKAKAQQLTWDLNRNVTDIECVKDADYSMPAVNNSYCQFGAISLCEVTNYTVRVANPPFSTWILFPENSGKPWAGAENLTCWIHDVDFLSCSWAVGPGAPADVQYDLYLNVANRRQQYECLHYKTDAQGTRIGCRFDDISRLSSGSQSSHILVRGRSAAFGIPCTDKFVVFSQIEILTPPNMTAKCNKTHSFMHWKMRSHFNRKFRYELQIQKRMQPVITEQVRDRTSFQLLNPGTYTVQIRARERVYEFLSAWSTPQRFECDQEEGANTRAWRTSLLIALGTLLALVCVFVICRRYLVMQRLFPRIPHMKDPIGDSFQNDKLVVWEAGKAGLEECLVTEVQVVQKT
T2 sequence (P32927 17-897, chain 2 of 2): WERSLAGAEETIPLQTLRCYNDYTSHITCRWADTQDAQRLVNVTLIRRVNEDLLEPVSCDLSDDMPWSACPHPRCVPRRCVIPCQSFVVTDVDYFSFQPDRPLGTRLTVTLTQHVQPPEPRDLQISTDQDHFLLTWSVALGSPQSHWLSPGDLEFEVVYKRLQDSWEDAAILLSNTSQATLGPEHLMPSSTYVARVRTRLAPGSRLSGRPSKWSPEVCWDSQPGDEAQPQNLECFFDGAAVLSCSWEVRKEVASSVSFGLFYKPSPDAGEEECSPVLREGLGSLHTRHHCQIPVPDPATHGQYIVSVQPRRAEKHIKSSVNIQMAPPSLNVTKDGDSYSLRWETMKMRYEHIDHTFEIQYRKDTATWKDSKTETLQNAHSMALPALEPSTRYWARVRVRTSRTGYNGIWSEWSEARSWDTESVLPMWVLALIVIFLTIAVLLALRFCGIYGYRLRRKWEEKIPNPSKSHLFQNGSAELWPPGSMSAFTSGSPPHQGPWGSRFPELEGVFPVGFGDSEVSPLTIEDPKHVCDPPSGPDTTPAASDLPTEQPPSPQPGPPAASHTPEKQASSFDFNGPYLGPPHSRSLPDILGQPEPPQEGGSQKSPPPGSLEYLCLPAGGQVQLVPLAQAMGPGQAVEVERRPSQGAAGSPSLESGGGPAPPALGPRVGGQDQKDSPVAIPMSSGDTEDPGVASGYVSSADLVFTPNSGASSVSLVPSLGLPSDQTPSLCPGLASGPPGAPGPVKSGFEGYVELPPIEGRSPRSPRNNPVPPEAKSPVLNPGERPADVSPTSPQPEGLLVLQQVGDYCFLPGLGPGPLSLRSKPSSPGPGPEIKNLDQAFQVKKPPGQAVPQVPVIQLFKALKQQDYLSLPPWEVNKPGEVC
T1 sequence (P26951 19-378): as the sequence (P26951 19-378, chain 1 of 2) above

B1: ^125I-hIL-3(13-125; W13Y) (ligand, human)
chain: GAMGSYVNCSNMIDEIITHLKQPPLPLLDFNNLNGEDQDILMENNLRRPNLEAFNRAVKSLQNASAIESILKNLLPCLPLATAAPTRHPIHIKDGDWNEFRRKLTFYLKTLENAQAQQ
modifications: ^125I radio-iodinated (tyrosine labelling, Pierce Pre-Coated Iodination tubes / Iodogen)
notes: non-native N-terminal overhang left after TEV protease cleavage of the NusA-His6 tag (cloning artifact); human interleukin-3, four-helix bundle core, residues 13-125 with W13Y; numbers count on: the mature protein; Vector pETNusH HTb; also called hIL-3(W13Y); hIL-3 analog; source: E. coli BL21 CodonPlus (DE3)-RIPL, purified (Ni-NTA, TEV cleavage, SEC, in some cases RP-HPLC), then radio-iodinated; …
On to B1, for which the Kd (commonly a measure of binding affinity in units of concentration) in test [1] is 143 nM; in test [2], 0.456 nM.
